Reference: article PMC5240623, “Methylation specific targeting of a chromatin remodeling complex from sponges to humans” (Scientific Reports, 2017)
No end group written: not given here.

Target: T1, HsGATAD2A coiled-coil domain, uncleaved fusion peptide (human, UniProt Q86YP4 137-178)
T1 construct: GATAD2A (p66α), human, coiled-coil domain; the purification of this construct is not described here; also called GATAD2A (p66α)
Assay: ITC; fusion peptides left uncleaved; 50 mM Hepes pH 7.4, 150 mM NaCl, 298 K; MicroCal Auto-iTC200, 20–24 injections; HsMBD2 (1.8 mM), EmGATAD2A/B (2.74 mM), DmGATAD2A/B (2.5 mM) injected into HsGATAD2A (100 μM), EmMBD2/3 (270 μM), DmMBD2/3 (250 μM); one-site binding model
Conditions: both partners purified

T1 sequence (Q86YP4 137-178): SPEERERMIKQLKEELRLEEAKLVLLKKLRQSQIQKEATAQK

B1: HsMBD2 coiled-coil domain, uncleaved fusion peptide (domain or fragment, human)
chain: KAFIVTDEDIRKQEERVQQVRKKLEEALMADILS
modifications: also: uncleaved fusion tag
notes: MBD2, human, coiled-coil domain; the purification of this construct is not described here
In the case of B1, the Kd is reported as 48 nM, the dH is reported as -9.93 kcal/mol and the “stoichiometry N” value is reported as 1.3.
